Reference: US20260224716A1, “PTH ANALOGS FOR THE TREATMENT OF HYPOPARATHYROIDISM” (priority 2020, published 2026)
*1 amine or outer side, *2 acyl side, *3 side chain or, on linkers, in order; H or OH if unused. Where no end group is shown, it is not given here. Side-chain parts run from the residue outwards. The star is where a group is joined. C18 diacid = O=C(O)CCCCCCCCCCCCCCCCC(=O)*; γGlu = O=C(O)[C@H](CCC(=O)[*:2])N[*:1]; AEEA = NCCOCCOCC(=O)O

Target: T1, PTH1 receptor (Homo sapiens, UniProt Q03431)
T1 construct: expressed in transfected cells; host or cells: HEK293
T1 sequence (Q03431 27-593): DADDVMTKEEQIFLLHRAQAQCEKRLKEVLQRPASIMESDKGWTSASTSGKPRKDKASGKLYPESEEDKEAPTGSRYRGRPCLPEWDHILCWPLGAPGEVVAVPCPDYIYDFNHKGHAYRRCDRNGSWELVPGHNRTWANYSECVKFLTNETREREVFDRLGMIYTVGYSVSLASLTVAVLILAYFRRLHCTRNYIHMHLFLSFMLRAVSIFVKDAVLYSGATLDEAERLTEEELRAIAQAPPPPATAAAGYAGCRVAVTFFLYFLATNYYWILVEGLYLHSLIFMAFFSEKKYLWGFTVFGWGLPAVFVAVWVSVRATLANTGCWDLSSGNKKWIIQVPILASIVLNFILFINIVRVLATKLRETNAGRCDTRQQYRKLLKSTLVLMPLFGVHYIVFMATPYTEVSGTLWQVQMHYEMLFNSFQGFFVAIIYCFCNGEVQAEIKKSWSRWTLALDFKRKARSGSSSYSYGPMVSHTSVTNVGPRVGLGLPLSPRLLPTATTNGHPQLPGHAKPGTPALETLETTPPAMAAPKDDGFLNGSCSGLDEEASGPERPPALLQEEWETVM
Assay: Luciferase-based reporter gene assay for cAMP detection (HEK293 cells)
Format: cell-based
Settings: for potency at the PTH receptor: luciferase reporter of cAMP production
Procedure: At the end of the incubation, 50 μL of Steady-Lite Plus (PerkinElmer, Waltham, MA) were added to each well. The plate was shaken briefly, incubated four minutes and light output was measured on an EnSpire Alpha Multi-mode Plate Reader (PerkinElmer, Waltham, MA).

Molecule | potency at the PTH receptor (FIGS. 3A, 3B) | EC50 (HEK293 cells, PTH1 receptor, cAMP-responsive luciferase, 5 hours, read-out: Potency EC50) | reduction of in vitro potency by alanine substitution at position 8 | potency at the PTH receptor (FIG. 4)
CC[C@H](C)[C@H](NC(=O)[C@H](CCC(=O)O)NC(=O)[C@H](CO)NC(=O)[C@@H](NC(=O)[C@H](CO)NC(=O)CN(C)C(=O)[C@H](N)CCCCNC(=O)CC[C@H](NC(=O)CCCCCCCCCCCCCCCCC(=O)O)C(=O)O)C(C)C)C(=O)N[C@@H](CCC(N)=O)C(=O)N[C@@H](CC(C)C)C(=O)N[C@@H](CCSC)C(=O)N[C@@H](Cc1c[nH]cn1)C(=O)N[C@@H](CC(N)=O)C(=O)N[C@@H](CC(C)C)C(=O)NCC(=O)N[C@@H](CCCCN)C(=O)N[C@@H](Cc1c[nH]cn1)C(=O)N[C@@H](CC(C)C)C(=O)N[C@@H](CC(N)=O)C(=O)N[C@@H](CO)C(=O)N[C@@H](CCSC)C(=O)N[C@@H](CCC(=O)O)C(=O)N[C@@H](CCCNC(=N)N)C(=O)N[C@H](C(=O)N[C@@H](CCC(=O)O)C(=O)N[C@@H](Cc1c[nH]c2ccccc12)C(=O)N[C@@H](CC(C)C)C(=O)N[C@@H](CCCNC(=N)N)C(=O)N[C@@H](CCCCN)C(=O)N[C@@H](CCCCN)C(=O)N[C@@H](CC(C)C)C(=O)N[C@@H](CCC(N)=O)C(=O)N[C@@H](CC(=O)O)C(=O)N[C@H](C(=O)N[C@@H](Cc1c[nH]cn1)C(=O)N[C@@H](CCC(N)=O)C(=O)N[C@@H](Cc1ccccc1)C(=O)O)C(C)C)C(C)C [SEQ ID NO: 61] | decreases the potency | 45.5 nM |  | 
(dK)K(γE-COC16H32CO2H)GSVSEIQLMHNLGKHLNSMERVEWLRKKLQDVHNF [SEQ ID NO: 10, acylated dipeptide attached to PTH (1-34)] | decreases the potency |  |  | 
SVSEIQLAHNLGKHLNSMERVEWLRKKLQDVHK(γE-(miniPEG)2-γE-COC16H32CO2H)-OH (SVSEIQLAHNLGKHLNSMERVEWLRKKLQDVHK([γGlu-AEEA-AEEA-γGlu-C18 diacid])-OH; N-terminus assumed; SMILES CC[C@H](C)[C@H](NC(=O)[C@H](CCC(=O)O)NC(=O)[C@H](CO)NC(=O)[C@@H](NC(=O)[C@@H](N)CO)C(C)C)C(=O)N[C@@H](CCC(N)=O)C(=O)N[C@@H](CC(C)C)C(=O)N[C@@H](C)C(=O)N[C@@H](Cc1c[nH]cn1)C(=O)N[C@@H](CC(N)=O)C(=O)N[C@@H](CC(C)C)C(=O)NCC(=O)N[C@@H](CCCCN)C(=O)N[C@@H](Cc1c[nH]cn1)C(=O)N[C@@H](CC(C)C)C(=O)N[C@@H](CC(N)=O)C(=O)N[C@@H](CO)C(=O)N[C@@H](CCSC)C(=O)N[C@@H](CCC(=O)O)C(=O)N[C@@H](CCCNC(=N)N)C(=O)N[C@H](C(=O)N[C@@H](CCC(=O)O)C(=O)N[C@@H](Cc1c[nH]c2ccccc12)C(=O)N[C@@H](CC(C)C)C(=O)N[C@@H](CCCNC(=N)N)C(=O)N[C@@H](CCCCN)C(=O)N[C@@H](CCCCN)C(=O)N[C@@H](CC(C)C)C(=O)N[C@@H](CCC(N)=O)C(=O)N[C@@H](CC(=O)O)C(=O)N[C@H](C(=O)N[C@@H](Cc1c[nH]cn1)C(=O)N[C@@H](CCCCNC(=O)CC[C@H](NC(=O)COCCOCCNC(=O)COCCOCCNC(=O)CC[C@H](NC(=O)CCCCCCCCCCCCCCCCC(=O)O)C(=O)O)C(=O)O)C(=O)O)C(C)C)C(C)C; listed as Homo sapiens) [SEQ ID NO: 93, PTH(1-33), A8, K33(γE-2xOEG-γE-diacidC18)] |  |  | ~100 fold | decreases PTH activity
k(N-Me)GSVSEIQLMHNLGKHLNSMERVEWLRKKLQDVHK(γE-(miniPEG)2-γE-COC16H32CO2H)-OH [SEQ ID NO: 80] |  |  |  | decreases the potency
